Where a chain is given by its changes, count along the chain named. In names and notes the source's numbering stands. Like-named read-outs stand apart in the source and are kept apart here.
How the values were obtained:
MKN45 cells = assay: Payload sensitivity of MKN45 cells; assay type: cell-based, human
Protocol: At Day 0, cells were harvested with 0.25% trypsin-EDTA, plated at 5,000 cells/well in 96-well plates (655090, Greiner), and incubated at 37° C., 5% CO2 overnight. At Day 1, payload compounds were added (5× dilution) into plates. Cell and compound mixtures were incubated at 37° C., 5% CO2 for 6 days. Survival cell signaling was collected at Day 6 with 100 μL of detection reagent (G7573, Promega®); signal was read by Tecan Spark®. Data were analyzed by GraphPad Prism 9.0.0. All killing concentrations were duplicated or triplicated (Table 21 and FIG. 16). “SABC” refers to specific antibody binding capacity.

[1] = target: T1, human CEA on cells (MKN45, LOVO, NCI-H2122, LS174T, CT26/CEA) (human, UniProt P06731 35-685); assay: cell-based or functional assay
T1 sequence: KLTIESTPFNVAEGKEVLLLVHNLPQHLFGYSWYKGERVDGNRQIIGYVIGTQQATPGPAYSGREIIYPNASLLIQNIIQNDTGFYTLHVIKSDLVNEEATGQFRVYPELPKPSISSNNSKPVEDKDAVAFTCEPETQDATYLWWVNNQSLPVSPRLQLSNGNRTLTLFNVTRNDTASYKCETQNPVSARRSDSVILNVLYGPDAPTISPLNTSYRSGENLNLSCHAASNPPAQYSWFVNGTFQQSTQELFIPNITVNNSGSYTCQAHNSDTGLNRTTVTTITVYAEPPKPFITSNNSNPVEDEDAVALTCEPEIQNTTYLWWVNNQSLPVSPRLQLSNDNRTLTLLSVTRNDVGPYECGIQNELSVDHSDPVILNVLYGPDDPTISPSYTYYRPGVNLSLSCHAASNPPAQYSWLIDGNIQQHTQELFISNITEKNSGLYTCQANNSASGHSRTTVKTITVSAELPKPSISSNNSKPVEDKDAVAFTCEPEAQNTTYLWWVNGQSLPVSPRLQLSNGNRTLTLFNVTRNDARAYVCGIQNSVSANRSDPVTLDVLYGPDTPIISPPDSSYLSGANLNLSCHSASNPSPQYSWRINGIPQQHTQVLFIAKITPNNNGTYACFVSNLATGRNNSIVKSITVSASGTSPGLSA

[2] = target: T1, human CEA on cells (MKN45, LOVO, …); assay: cell-based or functional assay; remark: listed apart in the source
[3] = target: T1, human CEA on cells (MKN45, LOVO, …); assay: cell-based or functional assay; remark: listed apart in the source
[4] = target: T2, chimeric construct (CHIM) (human); assay: SPR (BIAcore T-200); antibody captured on anti-human IgG chip, CHIM flowed (1.37-333 nM)
T2 construct: CEACAM6 AA 1-273 joined to the membrane-peripheral region containing domain B3 of CEA (AA 596-687), C-terminal 6xHis; also called chimeric CEA
T2 chain: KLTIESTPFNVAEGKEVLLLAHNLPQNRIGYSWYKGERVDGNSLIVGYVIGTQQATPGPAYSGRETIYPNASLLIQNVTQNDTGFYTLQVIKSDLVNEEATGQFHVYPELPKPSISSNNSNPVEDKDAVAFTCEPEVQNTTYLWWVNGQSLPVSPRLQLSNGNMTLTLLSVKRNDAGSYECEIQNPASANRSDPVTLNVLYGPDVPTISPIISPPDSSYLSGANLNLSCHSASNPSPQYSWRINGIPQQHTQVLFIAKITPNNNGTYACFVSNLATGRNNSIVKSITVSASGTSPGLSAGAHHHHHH
Protocol: For this experiment, anti-human IgG (Fc) antibody was immobilized on an activated CM5 biosensor chip (Cat. No. BR100839, GE Life Sciences). Anti-CEA antibodies were flowed over the chip surface and captured by anti-human Fab antibody. […] For flow cytometry, CEA-expressing cells (10′ cells/well) were incubated with various concentrations of purified affinity-matured antibodies, followed by binding with Alexa Fluro-647-labeled anti-hu IgG Fc antibody (Cat. No. 409320, BioLegend, USA). Cell fluorescence was quantified using a flow cytometer (Guava easyCyte™ 8HT, Merck-Millipore, USA). The equilibrium dissociation constant (KD) was calculated as the ratio koff/kₒₙ.

CHIM [5] = target: T3, CHIM (Homo sapiens, UniProt P06731, A174T/A211G/A239V/A261S/A267P/C12H/D173N/E253A/E283V/F203L/F272R/F277P/F63I/H123Q/H61N/H9C/I100T/I112V/I113T/I13V/I230T/I80V/INS244IISP/K155N/K214E/L18V/L245P/L62R/N182G/N204S/N246D/N288K/P266S/P287A/Q16K/Q78L/R139H/R17E/R198M/R224N/R250L/R77S/S228P/S280H/T171V/T206K/T210A/T217I/T247S/T276I/V221A/V273I/V291P/V55A/W11L); assay: SPR affinity comparison of affinity matured humanized BGA7592 variants on CHIM; assay type: binding; conditions: Table 9, SPR on CHIM
T3 construct: CEACAM6 N-terminal part (fusion partner); 6xHis (C); made in house; host or cells: HEK293-based mammalian cell expression system
T3 sequence (P06731 with tags, fused parts or gaps H9C/W11L/C12H/I13V/Q16K/R17E/L18V/V55A/H61N/L62R/F63I/R77S/Q78L/I80V/I100T/I112V/I113T/H123Q/R139H/K155N/T171V/D173N/A174T/N182G/R198M/F203L/N204S/T206K/T210A/A211G/K214E/T217I/V221A/R224N/S228P/I230T/A239V/INS244IISP/L245P/N246D/T247S/R250L/E253A/A261S/P266S/A267P/F272R/V273I/T276I/F277P/S280H/E283V/P287A/N288K/V291P): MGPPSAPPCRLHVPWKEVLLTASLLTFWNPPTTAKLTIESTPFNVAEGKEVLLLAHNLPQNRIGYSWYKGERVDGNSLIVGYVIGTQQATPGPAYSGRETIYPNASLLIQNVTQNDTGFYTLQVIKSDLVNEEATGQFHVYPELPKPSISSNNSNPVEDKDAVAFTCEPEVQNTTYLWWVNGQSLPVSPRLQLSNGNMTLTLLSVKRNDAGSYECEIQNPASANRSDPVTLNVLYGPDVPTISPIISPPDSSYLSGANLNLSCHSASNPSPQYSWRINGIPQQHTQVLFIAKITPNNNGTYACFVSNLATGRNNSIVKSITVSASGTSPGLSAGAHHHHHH
Protocol: Affinity comparison of BGA7592-1F (BGA5366) and other affinity matured clones was made by SPR assay (Table 9) using BIAcore™ T-200 (GE Life Sciences) and flow cytometry (FIG. 7). For this experiment, anti-human IgG (Fc) antibody was immobilized on an activated CM5 biosensor chip (Cat. No. BR100839, GE Life Sciences). Anti-CEA antibodies were flowed over the chip surface and captured by anti-human Fab antibody. Then a serial dilution (1.37 nM to 333 nM) of CHIM was flowed over the chip surface and changes in surface plasmon resonance signals were analyzed to calculate the association rates (kon) and dissociation rates (koff) by using the one-to-one Langmuir binding model (BIA Evaluation Software, GE Life Sciences). For flow cytometry, CEA-expressing cells (10′ cells/well) were incubated with various concentrations of purified affinity-matured antibodies, followed by binding with Alexa Fluro-647-labeled anti-hu IgG Fc antibody (Cat. No. 409320, BioLegend, USA). Cell fluorescence was quantified using a flow cytometer (Guava easyCyte™ 8HT, Merck-Millipore, USA). The equilibrium dissociation constant (KD) was calculated as the ratio koff/kon.

[6] = target: T2, chimeric construct (CHIM); assay: SPR; binding to CHIM
CHIM [7] = target: T3, CHIM; assay: SPR affinity comparison of affinity matured humanized BGA7592 variants on CHIM; assay type: binding; conditions: for Ka / Rmax: Table 11, SPR to CHIM

COc1cc2cc(c1Cl)N(C)C(=O)C[C@H](OC(=O)[C@H](C)N(C)C(=O)CCC(C)(C)S)[C@]1(C)O[C@H]1[C@H](C)[C@@H]1C[C@@](O)(NC(=O)O1)[C@H](OC)/C=C/C=C(\C)C2 [P1, DM4]
Emax (MKN45 cells; MKN45, 6 days): 97.6
EC50 (MKN45 cells; MKN45, 6 days, read-out: EC50): 1.16 nM

CC[C@@]1(O)C(=O)OCc2c1cc1n(c2=O)Cc2c-1nc1cc(F)c(C)c3c1c2[C@@H](NC(=O)CO)CC3 [P2, DXD]
EC50 (MKN45 cells; Homo sapiens, MKN-45, […]): 2.08 nM
Emax (MKN45 cells; Homo sapiens, MKN-45, […]): 98.1%

B1: BGA2490 (antibody, human IgG1, kappa, V domains shown)
VH: QVQLVQSGAEVKKPGASVKVSCKASGYIFTSYYLHWVRQAPGQGLEWIGYINPQTGKTSYAQKFQGRVTMTRDTSTSTVYMELSSLRSEDTAVYYCAREYGNYNYPLDYWGQGTLVTVSS
VL: DIQMTQSPSSLSASVGDRVTITCRASENQYGYLAWYQQKPGKVPKLLIYNYKNLVEGVPSRFSGSGSGTDFTLTISSLQPEDVATYYCQHHLGTPYTFGQGTKVEIKR
modifications: linker-payload conjugated after reduction of the antibody, DAR 8 profile (structure only as a drawing in Table 18)
EC50, cell killing of LS174T cells [1]: 0.76 nM
Emax, cell killing of LS174T cells [1]: 70.3
EC50, cell killing of NCI-H2122 cells [2]: 0.19 nM
Emax, cell killing of NCI-H2122 cells [2]: 82.8
EC50, cell killing of MKN45 cells [3]: 0.44 nM
Emax, cell killing of MKN45 cells [3]: 89

B2: BGA7592-1F (antibody, human IgG1, V domains shown)
VH: B1 VH with Y33W, K57Y
VL: DIQMTQSPSSLSASVGDRVTITCRASENIYGYLAWYQQKPGKVPKLLIYNAKNLVEGVPSRFSGSGSGTDFTLTISSLQPEDVATYYCQHHYGTPYTFGQGTKVEIK
notes: BGA7592-1 with N54Q, N59S, S61A in VH; human IgG1 wild type / kappa format; also called BGA5366
Kd [4]: 790 nM
koff [4]: 0.0015 s⁻¹
kon [4]: 1900 M⁻¹ s⁻¹

B3: BGA7592-1F (BGA5366): "BGA7592-1F (also described herein as BGA5366)"; humanized anti-CEA antibody, parent of the affinity matured clones (antibody, V domains shown)
VH: B1 VH with Y33W, K57Y
VL: B2 VL
Ka (CHIM [5]): 1900 M⁻¹ s⁻¹
Rmax (CHIM [5]): 367 RU

B4: BGA2588 (BGA5384 conjugated with DXD) (antibody, human IgG1, kappa, V domains shown)
VH: B1 VH
VL: B1 VL
modifications: DXD linker-payload conjugated after reduction of the antibody, DAR 8 profile (structure only as a drawing in Table 18)
EC50, cell killing of LS174T cells [1]: 1.12 nM
Emax, cell killing of LS174T cells [1]: 69.7
EC50, cell killing of NCI-H2122 cells [2]: 0.22 nM
Emax, cell killing of NCI-H2122 cells [2]: 74
EC50, cell killing of MKN45 cells [3]: 0.46 nM
Emax, cell killing of MKN45 cells [3]: 85

B5: BGA2107 (antibody, human IgG1, V domains shown)
VH: B1 VH with Y33W, Q54N, K57Y
VL: B2 VL with I29Q, A51T, Y92L
notes: Built on the BGA7592-1F-ph-M (BGA2433) template; human IgG1/kappa
Kd [6]: 19.2 nM
koff [6]: 0.00038 s⁻¹
kon [6]: 19800 M⁻¹ s⁻¹
binding activities compared to BGA7592-1F-ph-F (BGA9521) (CHIM [7]): improved binding activities
Ka (CHIM [7]): 19800 M⁻¹ s⁻¹
Rmax (CHIM [7]): 71.1 RU

B6: BGA7592-1F-ph-M (antibody, human IgG1, V domains shown)
VH: B1 VH with Y33W, K57Y
VL: B2 VL with I29Q, A51T, Y92L
notes: human IgG1/kappa; also called BGA2433
Kd [6]: 12.6 nM
koff [6]: 0.000248 s⁻¹
kon [6]: 19700 M⁻¹ s⁻¹
Kd [4]: 99 nM
koff [4]: 0.00025 s⁻¹
kon [4]: 2500 M⁻¹ s⁻¹

B7: BGA8179 (antibody, human IgG1, V domains shown)
VH: B1 VH with K57Y
VL: B2 VL with I29Q, A51T, Y92L
notes: as for B5
Kd [6]: 14.2 nM
koff [6]: 0.000282 s⁻¹
kon [6]: 19900 M⁻¹ s⁻¹
binding activities compared to BGA7592-1F-ph-F (BGA9521) (CHIM [7]): improved binding activities
Ka (CHIM [7]): 19900 M⁻¹ s⁻¹
Rmax (CHIM [7]): 129.1 RU

B8: BGA7592-1F-ph-L (antibody, human IgG1, V domains shown)
VH: B1 VH with Y33W, K57Y
VL: B2 VL with I29Q, A51F, Y92L
notes: human IgG1/kappa; also called BGA3676
Kd [4]: 46 nM
koff [4]: 0.0003 s⁻¹
kon [4]: 6700 M⁻¹ s⁻¹

B9: BGA0089 (antibody, human IgG1, V domains shown)
VH: B1 VH with Y33W, K57Y, S59N
VL: B2 VL with I29Q, A51T, Y92L
notes: as for B5
Kd [6]: 21.5 nM
koff [6]: 0.000394 s⁻¹
kon [6]: 18400 M⁻¹ s⁻¹
binding activities compared to BGA7592-1F-ph-F (BGA9521) (CHIM [7]): improved binding activities
Ka (CHIM [7]): 18400 M⁻¹ s⁻¹
Rmax (CHIM [7]): 59.4 RU
